Tests used:
SEPTIN9 (human) [1] = molecular target: SEPTIN9 (human) (UniProt Q9UHD8); test: HaloLink pulldown from MV3 cells, LC-MS/MS
SEPTIN11 (human) [2] = molecular target: SEPTIN11 (human) (UniProt Q9NVA2); test: HaloLink pulldown from MV3 cells, LC-MS/MS
SEPTIN6 (human) [3] = molecular target: SEPTIN6 (human) (UniProt Q14141); test: HaloLink pulldown from MV3 cells, LC-MS/MS
SEPTIN10 (human) [4] = molecular target: SEPTIN10 (human) (UniProt Q9P0V9); test: HaloLink pulldown from MV3 cells, LC-MS/MS
SEPTIN8 (human) [5] = molecular target: SEPTIN8 (human) (UniProt Q92599); test: HaloLink pulldown from MV3 cells, LC-MS/MS
SEPTIN2 (human) [6] = molecular target: SEPTIN2 (human) (UniProt Q15019); test: HaloLink pulldown from MV3 cells, LC-MS/MS
SEPTIN7 (human) [7] = molecular target: SEPTIN7 (human) (UniProt Q16181); test: HaloLink pulldown from MV3 cells, LC-MS/MS
SEPTIN9 (human) [8] = molecular target: SEPTIN9 (human) (UniProt Q9UHD8); test: HaloLink pulldown from unperturbed A375 cells, LC-MS/MS
SEPTIN11 (human) [9] = molecular target: SEPTIN11 (human) (UniProt Q9NVA2); test: as above
SEPTIN6 (human) [10] = molecular target: SEPTIN6 (human) (UniProt Q14141); test: as above
SEPTIN10 (human) [11] = molecular target: SEPTIN10 (human) (UniProt Q9P0V9); test: as above
SEPTIN8 (human) [12] = molecular target: SEPTIN8 (human) (UniProt Q92599); test: as above
SEPTIN2 (human) [13] = molecular target: SEPTIN2 (human) (UniProt Q15019); test: as above
SEPTIN7 (human) [14] = molecular target: SEPTIN7 (human) (UniProt Q16181); test: as above

SEPTIN9 (human), sequence (Q9UHD8 whole entry): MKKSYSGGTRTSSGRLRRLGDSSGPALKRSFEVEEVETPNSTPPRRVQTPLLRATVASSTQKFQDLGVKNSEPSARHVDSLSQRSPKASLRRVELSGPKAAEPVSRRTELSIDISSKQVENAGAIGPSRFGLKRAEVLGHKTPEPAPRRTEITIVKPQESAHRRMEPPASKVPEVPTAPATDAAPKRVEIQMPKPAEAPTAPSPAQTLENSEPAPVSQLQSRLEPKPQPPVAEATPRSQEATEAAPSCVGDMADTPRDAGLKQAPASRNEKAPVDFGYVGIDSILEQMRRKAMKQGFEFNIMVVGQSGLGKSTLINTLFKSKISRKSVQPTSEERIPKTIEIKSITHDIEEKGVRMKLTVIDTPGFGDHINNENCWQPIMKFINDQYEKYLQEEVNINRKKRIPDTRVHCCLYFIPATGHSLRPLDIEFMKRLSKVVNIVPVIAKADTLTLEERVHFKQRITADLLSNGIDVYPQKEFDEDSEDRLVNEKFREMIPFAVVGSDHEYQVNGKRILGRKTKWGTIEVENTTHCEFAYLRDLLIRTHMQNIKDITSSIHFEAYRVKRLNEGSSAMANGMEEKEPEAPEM
SEPTIN10 (human), sequence (Q9P0V9 whole entry): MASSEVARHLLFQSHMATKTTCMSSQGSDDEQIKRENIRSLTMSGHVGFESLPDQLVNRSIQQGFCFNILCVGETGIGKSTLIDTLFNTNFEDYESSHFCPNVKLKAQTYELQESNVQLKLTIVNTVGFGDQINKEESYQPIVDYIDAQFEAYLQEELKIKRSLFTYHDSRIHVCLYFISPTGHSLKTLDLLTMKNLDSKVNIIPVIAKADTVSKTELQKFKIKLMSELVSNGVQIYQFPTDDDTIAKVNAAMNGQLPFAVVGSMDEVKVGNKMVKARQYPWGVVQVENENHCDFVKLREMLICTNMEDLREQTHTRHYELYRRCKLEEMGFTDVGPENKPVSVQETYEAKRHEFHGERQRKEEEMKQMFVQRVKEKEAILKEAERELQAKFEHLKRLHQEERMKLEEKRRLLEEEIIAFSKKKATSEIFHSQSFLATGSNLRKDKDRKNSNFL
SEPTIN2 (human), sequence (Q15019 whole entry): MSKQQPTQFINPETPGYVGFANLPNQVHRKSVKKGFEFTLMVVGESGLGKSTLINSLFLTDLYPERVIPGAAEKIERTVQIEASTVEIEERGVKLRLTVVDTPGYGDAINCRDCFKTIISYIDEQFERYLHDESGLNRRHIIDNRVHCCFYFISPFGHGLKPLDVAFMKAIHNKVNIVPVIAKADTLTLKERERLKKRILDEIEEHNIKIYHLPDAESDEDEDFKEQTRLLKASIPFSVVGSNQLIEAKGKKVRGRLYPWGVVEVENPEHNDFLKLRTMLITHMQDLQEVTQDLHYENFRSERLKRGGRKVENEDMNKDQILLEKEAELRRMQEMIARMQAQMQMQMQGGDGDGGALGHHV
SEPTIN8 (human), sequence (Q92599 2-483 limits assumed): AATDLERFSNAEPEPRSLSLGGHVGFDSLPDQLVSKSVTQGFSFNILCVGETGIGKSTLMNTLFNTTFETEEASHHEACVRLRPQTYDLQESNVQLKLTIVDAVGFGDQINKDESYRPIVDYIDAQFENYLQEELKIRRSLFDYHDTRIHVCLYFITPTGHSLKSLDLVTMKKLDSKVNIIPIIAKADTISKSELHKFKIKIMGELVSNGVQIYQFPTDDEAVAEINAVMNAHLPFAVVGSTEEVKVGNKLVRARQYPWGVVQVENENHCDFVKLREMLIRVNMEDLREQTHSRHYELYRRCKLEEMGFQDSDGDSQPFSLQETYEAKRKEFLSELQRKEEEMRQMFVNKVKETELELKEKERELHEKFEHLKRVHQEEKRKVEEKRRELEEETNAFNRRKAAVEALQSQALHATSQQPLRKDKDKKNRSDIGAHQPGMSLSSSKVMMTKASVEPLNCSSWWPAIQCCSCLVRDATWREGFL
SEPTIN7 (human), sequence (Q16181 2-437 limits assumed): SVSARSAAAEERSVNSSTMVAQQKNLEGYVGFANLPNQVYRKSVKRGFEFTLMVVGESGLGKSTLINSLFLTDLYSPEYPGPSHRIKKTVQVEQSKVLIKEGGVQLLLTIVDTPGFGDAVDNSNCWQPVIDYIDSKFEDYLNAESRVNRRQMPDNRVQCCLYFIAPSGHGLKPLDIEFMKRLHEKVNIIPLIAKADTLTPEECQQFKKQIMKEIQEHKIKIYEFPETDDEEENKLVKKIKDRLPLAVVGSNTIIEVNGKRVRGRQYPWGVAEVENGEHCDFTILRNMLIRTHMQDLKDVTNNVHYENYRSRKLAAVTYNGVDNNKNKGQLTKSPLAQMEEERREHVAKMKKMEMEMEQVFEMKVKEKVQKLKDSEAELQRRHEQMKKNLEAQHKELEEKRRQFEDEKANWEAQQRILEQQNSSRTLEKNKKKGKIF
SEPTIN6 (human), sequence (Q14141 2-434 limits assumed): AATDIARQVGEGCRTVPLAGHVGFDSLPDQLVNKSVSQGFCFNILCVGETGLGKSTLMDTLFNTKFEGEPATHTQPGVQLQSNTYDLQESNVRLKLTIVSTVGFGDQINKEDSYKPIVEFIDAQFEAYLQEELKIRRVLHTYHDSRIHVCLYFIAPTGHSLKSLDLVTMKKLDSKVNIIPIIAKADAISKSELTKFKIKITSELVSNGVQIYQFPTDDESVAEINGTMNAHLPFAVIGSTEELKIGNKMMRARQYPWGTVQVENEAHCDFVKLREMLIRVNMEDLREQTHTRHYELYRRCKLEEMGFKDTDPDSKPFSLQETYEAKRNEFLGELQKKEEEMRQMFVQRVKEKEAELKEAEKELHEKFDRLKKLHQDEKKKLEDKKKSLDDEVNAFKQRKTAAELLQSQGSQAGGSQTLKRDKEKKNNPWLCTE
SEPTIN11 (human), sequence (Q9NVA2 2-429 limits assumed): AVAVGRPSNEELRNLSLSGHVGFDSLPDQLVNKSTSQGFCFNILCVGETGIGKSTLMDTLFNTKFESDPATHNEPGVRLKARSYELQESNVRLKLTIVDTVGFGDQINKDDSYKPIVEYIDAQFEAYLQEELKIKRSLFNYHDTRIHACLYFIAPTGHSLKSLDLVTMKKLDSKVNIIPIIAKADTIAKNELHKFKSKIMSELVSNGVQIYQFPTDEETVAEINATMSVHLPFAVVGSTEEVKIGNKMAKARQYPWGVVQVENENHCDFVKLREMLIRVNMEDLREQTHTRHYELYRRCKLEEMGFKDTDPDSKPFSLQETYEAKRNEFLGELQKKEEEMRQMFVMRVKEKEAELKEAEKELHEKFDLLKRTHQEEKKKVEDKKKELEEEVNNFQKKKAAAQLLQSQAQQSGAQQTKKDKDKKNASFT

- % of total protein abundance (SEPTIN9 (human) [1]): 1.85%
- % of total septin abundance (SEPTIN9 (human) [1]): 23%
- fold change between lysate and pulldown (% of total protein abundance) (SEPTIN9 (human) [1]): 61.7 fold
- fold change between lysate and pulldown (% of total septin abundance) (SEPTIN9 (human) [1]): 1.78 fold
- % of total protein abundance (SEPTIN11 (human) [2]): 0.08%
- % of total septin abundance (SEPTIN11 (human) [2]): 0.94%
- % of total protein abundance (SEPTIN6 (human) [3]): 1.03%
- % of total septin abundance (SEPTIN6 (human) [3]): 12.8%
- fold change between lysate and pulldown (% of total protein abundance) (SEPTIN6 (human) [3]): 11.4 fold
- fold change between lysate and pulldown (% of total septin abundance) (SEPTIN6 (human) [3]): -3.2 fold
- % of total protein abundance (SEPTIN10 (human) [4]): 0.28%
- % of total septin abundance (SEPTIN10 (human) [4]): 3.19%
- fold change between lysate and pulldown (% of total protein abundance) (SEPTIN10 (human) [4]): 7 fold
- fold change between lysate and pulldown (% of total septin abundance) (SEPTIN10 (human) [4]): -5.32 fold
- % of total protein abundance (SEPTIN8 (human) [5]): < 0.01%
- % of total septin abundance (SEPTIN8 (human) [5]): 0.09%
- fold change between lysate and pulldown (% of total septin abundance) (SEPTIN8 (human) [5]): -3.44 fold
- % of total protein abundance (SEPTIN2 (human) [6]): 2.43%
- % of total septin abundance (SEPTIN2 (human) [6]): 30.1%
- fold change between lysate and pulldown (% of total protein abundance) (SEPTIN2 (human) [6]): 60.8 fold
- fold change between lysate and pulldown (% of total septin abundance) (SEPTIN2 (human) [6]): 1.5 fold
- % of total protein abundance (SEPTIN7 (human) [7]): 2.41%
- % of total septin abundance (SEPTIN7 (human) [7]): 29.9%
- fold change between lysate and pulldown (% of total protein abundance) (SEPTIN7 (human) [7]): 120 fold
- fold change between lysate and pulldown (% of total septin abundance) (SEPTIN7 (human) [7]): 3.39 fold
- % of total protein abundance (SEPTIN9 (human) [8]): 1.55%
- % of total septin abundance (SEPTIN9 (human) [8]): 22.1%
- fold change between lysate and pulldown (% of total protein abundance) (SEPTIN9 (human) [8]): 77.5 fold
- fold change between lysate and pulldown (% of total septin abundance) (SEPTIN9 (human) [8]): 1.62 fold
- % of total protein abundance (SEPTIN11 (human) [9]): < 0.01%
- % of total septin abundance (SEPTIN11 (human) [9]): 0.12%
- fold change between lysate and pulldown (% of total septin abundance) (SEPTIN11 (human) [9]): -44.7 fold
- % of total protein abundance (SEPTIN6 (human) [10]): 1.67%
- % of total septin abundance (SEPTIN6 (human) [10]): 23.8%
- fold change between lysate and pulldown (% of total protein abundance) (SEPTIN6 (human) [10]): 55.7 fold
- fold change between lysate and pulldown (% of total septin abundance) (SEPTIN6 (human) [10]): -1.33 fold
- % of total protein abundance (SEPTIN10 (human) [11]): 0.51%
- % of total septin abundance (SEPTIN10 (human) [11]): 7.23%
- fold change between lysate and pulldown (% of total septin abundance) (SEPTIN10 (human) [11]): 3.77 fold
- % of total protein abundance (SEPTIN8 (human) [12]): < 0.01%
- % of total septin abundance (SEPTIN8 (human) [12]): 0.02%
- % of total protein abundance (SEPTIN2 (human) [13]): 1.81%
- % of total septin abundance (SEPTIN2 (human) [13]): 25.7%
- fold change between lysate and pulldown (% of total protein abundance) (SEPTIN2 (human) [13]): 60.3 fold
- fold change between lysate and pulldown (% of total septin abundance) (SEPTIN2 (human) [13]): -1.03 fold
- % of total protein abundance (SEPTIN7 (human) [14]): 1.48%
- % of total septin abundance (SEPTIN7 (human) [14]): 21.1%
- fold change between lysate and pulldown (% of total protein abundance) (SEPTIN7 (human) [14]): 74 fold
- fold change between lysate and pulldown (% of total septin abundance) (SEPTIN7 (human) [14]): 1.35 fold
Substance: mouse SEPT6-HALO (from UniProt Q9R1T4 2-434)

From US20250268980A1, “AN ANTICANCER THERAPY TARGETING RAS AND OTHER ONCOGENIC SIGNALS BY INHIBITION OF DYNAMIC BLEBBING AND/OR SEPTINS” (THE BOARD OF REGENTS OF THE UNIVERSITY OF TEXAS SYSTEM, priority 2022, published 2025)
